We go through one protein from ChEMBL document CHEMBL4024756, “Identification of 4-Phenoxyquinoline Based Inhibitors for L1196M Mutant of Anaplastic Lymphoma Kinase by Structure-Based Design” (J Med Chem, 2017).

Holding throughout (conditions): Homo sapiens
Substrate in data set [1]: Cc1ccc(Oc2ccnc3cc(-c4cnn(C5CCNCC5)c4)ccc23)cc1
Substrate in data set [2]: Cc1ccc(Oc2ccnc3cc(-c4cnn(C5CCNCC5)c4)ccc23)cc1
This is another data set of the same source.

Substrate in data set [3]: Cc1ccc(Oc2ccnc3cc(-c4cnn(C5CCNCC5)c4)ccc23)cc1
The source holds these as a separate data set.

Substrate in data set [4]: Cc1ccc(Oc2ccnc3cc(-c4cnn(C5CCNCC5)c4)ccc23)cc1
The source holds these as a separate data set.

Substrate in data set [5]: Cc1ccc(Oc2ccnc3cc(-c4cnn(C5CCNCC5)c4)ccc23)cc1
This is another data set of the same source.

B1: ALK tyrosine kinase receptor (Homo sapiens), Q9UM73 L1196M (protein)
chain: MGAIGLLWLLPLLLSTAAVGSGMGTGQRAGSPAAGPPLQPREPLSYSRLQRKSLAVDFVVPSLFRVYARDLLLPPSSSELKAGRPEARGSLALDCAPLLRLLGPAPGVSWTAGSPAPAEARTLSRVLKGGSVRKLRRAKQLVLELGEEAILEGCVGPPGEAAVGLLQFNLSELFSWWIRQGEGRLRIRLMPEKKASEVGREGRLSAAIRASQPRLLFQIFGTGHSSLESPTNMPSPSPDYFTWNLTWIMKDSFPFLSHRSRYGLECSFDFPCELEYSPPLHDLRNQSWSWRRIPSEEASQMDLLDGPGAERSKEMPRGSFLLLNTSADSKHTILSPWMRSSSEHCTLAVSVHRHLQPSGRYIAQLLPHNEAAREILLMPTPGKHGWTVLQGRIGRPDNPFRVALEYISSGNRSLSAVDFFALKNCSEGTSPGSKMALQSSFTCWNGTVLQLGQACDFHQDCAQGEDESQMCRKLPVGFYCNFEDGFCGWTQGTLSPHTPQWQVRTLKDARFQDHQDHALLLSTTDVPASESATVTSATFPAPIKSSPCELRMSWLIRGVLRGNVSLVLVENKTGKEQGRMVWHVAAYEGLSLWQWMVLPLLDVSDRFWLQMVAWWGQGSRAIVAFDNISISLDCYLTISGEDKILQNTAPKSRNLFERNPNKELKPGENSPRQTPIFDPTVHWLFTTCGASGPHGPTQAQCNNAYQNSNLSVEVGSEGPLKGIQIWKVPATDTYSISGYGAAGGKGGKNTMMRSHGVSVLGIFNLEKDDMLYILVGQQGEDACPSTNQLIQKVCIGENNVIEEEIRVNRSVHEWAGGGGGGGGATYVFKMKDGVPVPLIIAAGGGGRAYGAKTDTFHPERLENNSSVLGLNGNSGAAGGGGGWNDNTSLLWAGKSLQEGATGGHSCPQAMKKWGWETRGGFGGGGGGCSSGGGGGGYIGGNAASNNDPEMDGEDGVSFISPLGILYTPALKVMEGHGEVNIKHYLNCSHCEVDECHMDPESHKVICFCDHGTVLAEDGVSCIVSPTPEPHLPLSLILSVVTSALVAALVLAFSGIMIVYRRKHQELQAMQMELQSPEYKLSKLRTSTIMTDYNPNYCFAGKTSSISDLKEVPRKNITLIRGLGHGAFGEVYEGQVSGMPNDPSPLQVAVKTLPEVCSEQDELDFLMEALIISKFNHQNIVRCIGVSLQSLPRFILMELMAGGDLKSFLRETRPRPSQPSSLAMLDLLHVARDIACGCQYLEENHFIHRDIAARNCLLTCPGPGRVAKIGDFGMARDIYRASYYRKGGCAMLPVKWMPPEAFMEGIFTSKTDTWSFGVLLWEIFSLGYMPYPSKSNQEVLEFVTSGGRMDPPKNCPGPVYRIMTQCWQHQPEDRPNFAIILERIEYCTQDPDVINTALPIEYGPLVEEEEKVPVRPKDPEGVPPLLVSQQAKREEERSPAAPPPLPTTSSGKAAKKPTAAEISVRVPRGPAVEGGHVNMAFSQSNPPSELHKVHGSRNKPTSLWNPTYGSWFTEKPTKKNNPIAKKEPHDRGNLGLEGSCTVPPNVATGRLPGASLLLEPSSLTANMKEVPLFRLRHFPCGNVNYGYQQQGLPLEAATAPGAGHYEDTILKSKNSMNQPGP
The term Km denotes the substrate concentration at which the rate is half of its maximum. On to B1, for which the Km in data set [1] came to 58.8 µM; in data set [2] it was 94.6 µM; in data set [3] it was 32.6 µM; in data set [4], 860 µM; in data set [5] it was 298 µM.
